Data reported in patent US20040106134A1 (Regeneron, published 2004).

Tests used:
[1] = molecular target: T1, human BMP-5 (human, UniProt P22003 317-454, limits assumed); experiment: co-immunoprecipitation with anti-myc 9E10 beads, western blot
T1 construct: Bought from R&D Systems
T1 sequence (looked up): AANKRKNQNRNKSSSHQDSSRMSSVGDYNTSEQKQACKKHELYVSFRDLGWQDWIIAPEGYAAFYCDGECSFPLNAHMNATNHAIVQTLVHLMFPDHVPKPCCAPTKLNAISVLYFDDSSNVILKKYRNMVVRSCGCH
Description: (§1) Human DCR5-myc3 (1 ml of COS7 cell-derived serum-free conditioned media described supra) was co-incubated with human BMP-2 (1 μg/ml), or human BMP-4 (0.5 μg/1 ml) (R&D Systems), or human BMP-5 ([…]) (R&D Systems), or mouse Nodal (also known as mBMP-16; provided as ³⁵S-mouse Nodal expressed in X. laevis oocytes), or human BMP-11 (also known as human GDF-11; provided as ³⁵S-human BMP-11 expressed in X. laevis oocytes), in the absence or in the presence of human noggin protein hNGAB2 (described in published PCT application publication no. WO 99/03996, published Jan. 28, 1999, and incorporated in its entirety herein by reference), 2 to 5 μg/ml. The formation of a stable complex between human DCR5-myc3 and the different BMP family members was determined by immunoprecipitating human DCR5-myc3 and associated proteins using the anti-myc monoclonal antibody (9E10; 1 μg/ml) bound to Protein A Ultralink (Pierce). The binding reaction was carried out in the serum-free conditioned media containing 20 mM Tris pH 7.6, 150 mM NaCl, 0.1% Tween 20 (TBST), and 1 mg/ml bovine serum albumin (BSA). Binding was allowed to proceed for 1 hour at 25° C. in a reaction volume of 1.1 ml, with continuous mixing to keep the Protein A-Ultralink (Pierce) in suspension. […]

[2] = molecular target: T2, human BMP-11 (human, UniProt O95390 299-407, limits assumed, 35S-labelled); experiment: co-immunoprecipitation with anti-myc 9E10 beads, 35S-labelled BMP-11
T2 construct: Provided as 35S-labelled protein expressed in X. laevis oocytes; also called human GDF-11; GDF-11
T2 sequence (looked up): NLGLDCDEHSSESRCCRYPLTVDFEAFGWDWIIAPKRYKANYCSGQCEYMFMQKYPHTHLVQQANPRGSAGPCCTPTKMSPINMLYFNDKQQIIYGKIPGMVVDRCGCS
Description: as §1

[3] = molecular target: T3, mouse Nodal (mouse, UniProt P43021 245-354, limits assumed, 35S-labelled); experiment: co-immunoprecipitation with anti-myc 9E10 beads, 35S-labelled Nodal
T3 construct: Provided as 35S-labelled protein expressed in X. laevis oocytes; also called mBMP-16; 35S-mouse Nodal
T3 sequence (looked up): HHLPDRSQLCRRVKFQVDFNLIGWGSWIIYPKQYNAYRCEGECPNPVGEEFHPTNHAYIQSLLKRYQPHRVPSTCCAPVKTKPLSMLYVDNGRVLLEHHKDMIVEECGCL
Description: as §1

B1: human DCR5-myc3 (other)
chain: RKNRPAGAIPSPYKDGSSNNSERWQHQIKEVLASSQEALVVTERKYLKSDWCKTQPLRQTVSEEGCRSRTILNRFCYGQCNSFYIPRHVKKEEESFQSCAFCKPQRVTSVLVELECPGLDPPFRLKKIQKVKQCRCMSVNLSDSDKQTGEQKLISEEDLGGEQKLISEEDLGGEQKLISEEDLGP
notes: Used as serum-free conditioned medium of transiently transfected COS7 cells; also called Human DCR5-myc3 protein; hDCR-5
binding result [1]: no binding (tested: 1 g/ml (so in the source))
binding result [2]: no binding
binding result [3]: no binding
